The target of this experiment is MAPK ERK2 (human), P28482. Kind of experiment: FP. The note with it: modification not given.
Sequence of MAPK ERK2 (human), P28482 (P28482 whole entry): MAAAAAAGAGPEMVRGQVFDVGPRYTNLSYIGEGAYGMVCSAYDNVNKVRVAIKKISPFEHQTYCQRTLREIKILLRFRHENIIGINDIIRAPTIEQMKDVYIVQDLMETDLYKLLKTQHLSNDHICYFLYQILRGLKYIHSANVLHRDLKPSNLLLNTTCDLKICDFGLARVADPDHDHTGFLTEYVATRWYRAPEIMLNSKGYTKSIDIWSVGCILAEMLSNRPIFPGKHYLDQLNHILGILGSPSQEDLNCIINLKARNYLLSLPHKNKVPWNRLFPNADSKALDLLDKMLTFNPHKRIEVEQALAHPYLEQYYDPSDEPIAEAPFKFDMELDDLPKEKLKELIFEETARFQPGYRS

What is called Ki is the equilibrium dissociation constant of an inhibitor or competing ligand from its target. Higher therefore signals lower affinity. The molecule SKGKKRNPGLKIPK [MKK6] showed an inhibitory constant (Ki) of 65 µM.

QGKRKALKLNFANP [MKK4] came in with a Ki of 431 µM.

For the origin of these results see article PMC8837617.
